From the Immune Epitope Database (IEDB) come the findings set out here.

Assay [1] deals with HLA-B*15:17. As to the kind of experiment: IEDB peptide-MHC binding, purified MHC/competitive/fluorescence; filed as Kd, often an IC50 or EC50 that approximates it; ≥ and ≤ were set here for values at or beyond the usual limits of such assays.
The target in assay [2] is HLA-B*27:03. The assay is described as above.
Assay [3] addresses HLA-B*51:01. The description is as above. As to conditions: source organism: Zaire ebolavirus.
In assay [4] the target is HLA-A*26:01. Described as above.
The target in assay [5] is HLA-B*44:02. Put plainly: IEDB peptide-MHC binding, purified MHC/direct/fluorescence; filed as Kd, often an IC50 or EC50 that approximates it; ≥ and ≤ were set here for values at or beyond the usual limits of such assays. As to conditions: source organism: Ebola virus - Gabon (1994-1997).
Assay [6] concerns the target HLA-B*58:01. The assay is described as above. As to conditions: source organism: Ebola virus - Gabon (1994-1997).
Assay [7] has as its target HLA-A*11:01. The description is as above. As to conditions: source organism: Ebola virus - Gabon (1994-1997).
Assay [8] addresses HLA-A*68:02. Described as above. As to conditions: source organism: Zaire ebolavirus.
In assay [9] the target is HLA-B*57:01. The assay is described as above. As to conditions: source organism: Ebola virus - Gabon (1994-1997).
Assay [10] has as its target HLA-B*18:01. The assay is described as above. As to conditions: source organism: Ebola virus - Gabon (1994-1997).
The target of assay [11] is HLA-A*24:03. The assay is described as above. As to conditions: source organism: Zaire ebolavirus.
The target in assay [12] is HLA-B*27:05. The assay is described as above. As to conditions: source organism: Ebola virus - Gabon (1994-1997).
Assay [13] concerns the target HLA-A*02:01. The assay is described as above. As to conditions: source organism: Ebola virus - Gabon (1994-1997).
In assay [14] the target is HLA-B*39:01. The description is as above. As to conditions: source organism: Ebola virus - Gabon (1994-1997).
Assay [15] has as its target HLA-B*40:01. Described as above. As to conditions: source organism: Ebola virus - Gabon (1994-1997).
The target in assay [16] is HLA-A*29:02. The assay is described as above. As to conditions: source organism: Ebola virus - Gabon (1994-1997).
Assay [17] has as its target HLA-A*69:01. The description is as above. As to conditions: source organism: Ebola virus - Gabon (1994-1997).
In assay [18] the target is HLA-B*07:02. Described as above. As to conditions: source organism: Ebola virus - Gabon (1994-1997).
Assay [19] concerns the target HLA-A*03:01. Described as above. As to conditions: source organism: Ebola virus - Gabon (1994-1997).
The target in assay [20] is HLA-A*01:01. The assay is described as above. As to conditions: source organism: Ebola virus - Gabon (1994-1997).
For assay [21], the target named is HLA-B*15:01. Described as above. As to conditions: source organism: Ebola virus - Gabon (1994-1997).
The target in assay [22] is HLA-A*02:12. The assay is described as above. As to conditions: source organism: Zaire ebolavirus.
Assay [23] deals with HLA-A*23:01. The description is as above. As to conditions: source organism: Zaire ebolavirus.
Assay [24] deals with HLA-B*46:01. The assay is described as above. As to conditions: source organism: Ebola virus - Gabon (1994-1997).
Assay [25] deals with HLA-A*11:01. As to the kind of experiment: IEDB peptide-MHC binding, purified MHC/competitive/fluorescence; ≥ and ≤ were set here for values at or beyond the usual limits of such assays. As to conditions: source organism: Vaccinia virus.
Assay [26] concerns the target HLA-A*01:01. Described as above.
In assay [27] the target is HLA-B*58:01. Put plainly: IEDB peptide-MHC binding, purified MHC/competitive/radioactivity; filed as Kd, often an IC50 or EC50 that approximates it; ≥ and ≤ were set here for values at or beyond the usual limits of such assays.
In assay [28] the target is HLA-B*57:01. The assay is described as above.
In assay [29] the target is HLA-A*68:02. Described as above. As to conditions: source organism: Dengue virus 4 Philippines/H241/1956.
In assay [30] the target is HLA-B*57:01. Put plainly: IEDB peptide-MHC binding, purified MHC/competitive/fluorescence; filed as Kd, often an IC50 or EC50 that approximates it; ≥ and ≤ were set here for values at or beyond the usual limits of such assays. As to conditions: source organism: Shigella boydii CDC 3083-94.
Assay [31] concerns the target HLA-B*18:01. The assay is described as above. As to conditions: source organism: Shigella boydii CDC 3083-94.
Assay [32] addresses HLA-A*24:03. The assay is described as above. As to conditions: source organism: Shigella boydii CDC 3083-94.
For assay [33], the target named is HLA-A*02:19. The description is as above. As to conditions: source organism: Shigella boydii CDC 3083-94.
Assay [34] deals with HLA-A*02:01. The assay is described as above. As to conditions: source organism: Shigella boydii CDC 3083-94.
Assay [35] addresses HLA-B*39:01. Described as above. As to conditions: source organism: Shigella boydii CDC 3083-94.
Assay [36] deals with HLA-A*29:02. The assay is described as above. As to conditions: source organism: Shigella boydii CDC 3083-94.
Assay [37] has as its target HLA-A*03:01. The description is as above. As to conditions: source organism: Shigella boydii CDC 3083-94.
Assay [38] deals with HLA-B*15:01. The assay is described as above. As to conditions: source organism: Shigella boydii CDC 3083-94.
The target in assay [39] is HLA-A*23:01. The assay is described as above. As to conditions: source organism: Shigella boydii CDC 3083-94.
Assay [40] has as its target HLA-B*46:01. The description is as above. As to conditions: source organism: Shigella boydii CDC 3083-94.
Assay [41] concerns the target HLA-A*32:01. As to the kind of experiment: IEDB peptide-MHC binding, purified MHC/competitive/radioactivity; filed as Kd, often an IC50 or EC50 that approximates it; ≥ and ≤ were set here for values at or beyond the usual limits of such assays.
For assay [42], the target named is HLA-B*53:01. The description is as above. As to conditions: source organism: Dengue virus 4 Philippines/H241/1956.
The target in assay [43] is HLA-A*01:01. The assay is described as above. As to conditions: source organism: Dengue virus 2 Jamaica/1409/1983.
The target in assay [44] is HLA-A*02:01. Put plainly: IEDB peptide-MHC binding, purified MHC/competitive/fluorescence; ≥ and ≤ were set here for values at or beyond the usual limits of such assays. As to conditions: source organism: Sudan ebolavirus.
The mark [45] stands for this setting: source organism: Zaire ebolavirus.
Where [46] appears, read: source organism: Dengue virus 4 Philippines/H241/1956.
[47] abbreviates: source organism: Shigella boydii CDC 3083-94.
Setting [48] is: source organism: Dengue virus 3 Martinique/1243/1999.
The mark [49] stands for this setting: source organism: Dengue virus 2 Jamaica/1409/1983.

For AKATGRYNL, the equilibrium dissociation constant (Kd) in assay [1] (setting [45]), in assay [2] (setting [45]), in [3], in assay [4] (setting [45]), in assay [5] and in assay [6] was no less than 20 µM throughout. Besides, the Kd in [7], in [8], in assay [9], in [10], in [11] and in assay [12] was no less than 20 µM in each case. Further, the dissociation constant (Kd) (as a rule, a measure of binding affinity in units of concentration) was no less than 20 µM in [13]; 0.78 µM in assay [14]; no less than 20 µM in assay [15]; no less than 20 µM in assay [16]; no less than 20 µM in assay [17]; no less than 20 µM in assay [18]. Moreover, the dissociation constant Kd in assay [19], in assay [20], in assay [21], in [22], in assay [23] and in assay [24] was no less than 20 µM each time.

Consider GTEKEFLRY, for which the values for the IC50 in assay [25] and in assay [26] (source organism: Vaccinia virus) were 11.5 µM and 6.64 µM, respectively.

Regarding IGLSSRATW, the values for the Kd in [27] (setting [46]) and in assay [28] (setting [46]) were 0.00663 µM and 0.0481 µM, respectively.

Take LASMAICSAV: the Kd is 0.586 µM in assay [27] (setting [46]), 0.0262 µM in [29] and no less than 21.9 µM in assay [28] (setting [46]).

Turning to MAMTGLPQA, the Kd in assay [1] (setting [47]), in assay [2] (setting [47]), in assay [30], in [31], in [32] and in assay [4] (setting [47]) was no less than 20 µM in each case. Also, the equilibrium dissociation constant (Kd) in [33] is 0.0003 µM; in assay [34] it was 0.0008 µM; in assay [35], no less than 20 µM; in assay [36] it was no less than 20 µM; in assay [37], no less than 20 µM; in assay [38], no less than 20 µM. Besides, the Kd in assay [39] and in assay [40] was no less than 20 µM in each case.

With MVMTTTANW, the Kd in assay [27] (setting [46]) was determined as 0.0162 µM; in [41] (setting [46]) it was 0.0263 µM; in [28] (setting [46]) it was 0.011 µM; in [42] it was 0.00345 µM.

Regarding NSSFIIDGPN, the equilibrium dissociation constant (Kd) in assay [27] (setting [48]) came to 0.00543 µM; in assay [28] (setting [48]), 0.142 µM.

In the case of RVWIQENPW, the dissociation constant Kd in assay [27] (setting [49]) was found to be 0.0034 µM; in assay [41] (setting [49]), 0.0224 µM; in [28] (setting [49]) it was 0.00787 µM.

As for STSLSVSLVL, the equilibrium dissociation constant (Kd) in assay [28] (setting [49]) is 0.667 µM; in assay [43] it was 12 µM.

Turning to TASGKLITEW, the Kd in assay [27] (setting [49]) is 0.163 µM; in assay [28] (setting [49]), 0.0497 µM.

Consider VTEIDQLVC, for which the figures for the IC50 in assay [44] and in [26] (source organism: Sudan ebolavirus) were no less than 322 µM and 34.2 µM, respectively.
